The results in this text go back to US20080058270A1 (published 2008).

This test has as its target T1, lecithin:cholesterol acyltransferase (LCAT), purified from human plasma (human, UniProt P04180 25-440).
T1 sequence (looked up): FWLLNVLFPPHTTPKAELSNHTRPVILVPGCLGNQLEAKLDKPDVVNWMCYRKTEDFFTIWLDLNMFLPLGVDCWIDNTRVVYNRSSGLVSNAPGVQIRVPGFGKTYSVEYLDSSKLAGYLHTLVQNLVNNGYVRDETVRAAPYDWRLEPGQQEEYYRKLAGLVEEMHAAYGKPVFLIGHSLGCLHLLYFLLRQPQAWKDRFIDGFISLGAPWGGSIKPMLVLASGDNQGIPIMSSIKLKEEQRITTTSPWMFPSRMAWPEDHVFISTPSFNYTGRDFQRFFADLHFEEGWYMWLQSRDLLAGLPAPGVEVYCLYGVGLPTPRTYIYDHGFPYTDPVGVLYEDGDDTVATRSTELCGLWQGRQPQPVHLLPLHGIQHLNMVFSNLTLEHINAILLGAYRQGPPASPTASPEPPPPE
Briefly: cell-based or functional assay.

Turning to LDDLLQKWAEAFNQLLKK [peptide 237], the “ACTIVITY (%) LCAT” value turned out to be 111%.
